Like-named read-outs stand apart in the source and are kept apart here.

Holding throughout (format): cell-based
In experiment [1] the target is T1, human glucagon receptor (GCGr) (Homo sapiens, UniProt P47871).
T1 construct: expressed in transfected cells; host or cells: HEK293s or CHO cells
Kind of experiment: BSA-cAMP assay, cells expressing human glucagon receptor.

The target of another experiment is T2, rat GIP receptor (rGIPr) (Rattus norvegicus, UniProt P43219).
T2 construct: expressed in transfected cells; host or cells: HEK293s or CHO cells
T2 sequence (P43219 19-455): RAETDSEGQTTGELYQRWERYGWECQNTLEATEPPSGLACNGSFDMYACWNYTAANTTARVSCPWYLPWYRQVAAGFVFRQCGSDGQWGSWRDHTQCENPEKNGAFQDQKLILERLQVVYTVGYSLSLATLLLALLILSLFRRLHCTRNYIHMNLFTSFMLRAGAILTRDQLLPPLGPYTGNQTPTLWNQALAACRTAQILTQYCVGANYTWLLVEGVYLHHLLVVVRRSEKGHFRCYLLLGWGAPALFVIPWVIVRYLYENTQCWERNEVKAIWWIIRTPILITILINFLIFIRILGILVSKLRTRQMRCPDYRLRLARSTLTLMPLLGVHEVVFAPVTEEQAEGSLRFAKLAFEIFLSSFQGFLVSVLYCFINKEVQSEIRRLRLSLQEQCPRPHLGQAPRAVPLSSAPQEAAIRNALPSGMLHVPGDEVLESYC
As to the kind of experiment: BSA-cAMP assay, cells expressing rat GIP receptor. The settings on record: BSA-cAMP assay, read-out: rGIPr cAMP activity EC50. An outline of the steps:
(§1)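 EC50 is the midpoint of an unconstrained 4-parameter logistic fit to HTRF cAMP data, expressed as percent of maximal native agonist response, from two separate occasions. Rodent (mouse, rat) GLP-1R- or GIPR-expressing cells were incubated with compound 30 min at room temperature in 0.1% BSA medium, in duplicate.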

Experiment [2] addresses T3, mouse GLP-1 receptor (mGLP-1r) (Mus musculus, UniProt O35659).
T3 construct: expressed in transfected cells; host or cells: HEK293s or CHO cells
T3 sequence (O35659 22-463): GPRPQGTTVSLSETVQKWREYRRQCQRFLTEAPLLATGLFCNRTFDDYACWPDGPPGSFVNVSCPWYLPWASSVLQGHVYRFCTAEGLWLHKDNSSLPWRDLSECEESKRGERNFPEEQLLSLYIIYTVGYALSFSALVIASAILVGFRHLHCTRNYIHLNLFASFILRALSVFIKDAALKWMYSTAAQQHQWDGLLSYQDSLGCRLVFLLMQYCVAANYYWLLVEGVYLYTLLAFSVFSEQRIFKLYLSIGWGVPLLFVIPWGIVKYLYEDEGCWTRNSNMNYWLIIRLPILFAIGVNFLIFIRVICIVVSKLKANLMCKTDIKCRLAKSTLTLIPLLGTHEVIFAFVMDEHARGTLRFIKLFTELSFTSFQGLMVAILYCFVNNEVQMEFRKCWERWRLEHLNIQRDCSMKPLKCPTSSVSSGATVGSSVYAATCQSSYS
Kind of experiment: BSA-cAMP assay, cells expressing mouse GLP-1 receptor. The settings on record: BSA-cAMP assay, read-out: mGLP1r cAMP activity EC50. An outline of the steps:
as §1

Experiment [3] concerns the target T4, mouse GIP receptor (mGIPr) (Mus musculus, UniProt Q0P543).
T4 construct: expressed in transfected cells; host or cells: HEK293s or CHO cells
T4 sequence (Q0P543 19-460): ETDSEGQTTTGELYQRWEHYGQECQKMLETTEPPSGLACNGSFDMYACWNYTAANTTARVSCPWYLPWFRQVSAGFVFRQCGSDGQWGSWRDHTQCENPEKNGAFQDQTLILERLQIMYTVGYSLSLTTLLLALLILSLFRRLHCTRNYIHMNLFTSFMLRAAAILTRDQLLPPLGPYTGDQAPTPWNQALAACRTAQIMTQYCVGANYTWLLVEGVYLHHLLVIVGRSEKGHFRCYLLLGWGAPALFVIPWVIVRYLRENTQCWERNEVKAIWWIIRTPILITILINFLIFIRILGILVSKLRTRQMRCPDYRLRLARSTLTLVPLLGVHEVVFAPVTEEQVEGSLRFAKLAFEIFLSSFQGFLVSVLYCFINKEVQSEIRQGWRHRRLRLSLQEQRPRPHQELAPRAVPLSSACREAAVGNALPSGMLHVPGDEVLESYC
As to the kind of experiment: BSA-cAMP assay, cells expressing mouse GIP receptor. The following applies: BSA-cAMP assay, read-out: mGIPr cAMP activity EC50. An outline of the steps:
as §1

The target of experiment [4] is T5, human GLP-1 receptor (hGLP-1r) (Homo sapiens, UniProt P43220).
T5 construct: expressed in transfected cells
T5 sequence (P43220 24-463): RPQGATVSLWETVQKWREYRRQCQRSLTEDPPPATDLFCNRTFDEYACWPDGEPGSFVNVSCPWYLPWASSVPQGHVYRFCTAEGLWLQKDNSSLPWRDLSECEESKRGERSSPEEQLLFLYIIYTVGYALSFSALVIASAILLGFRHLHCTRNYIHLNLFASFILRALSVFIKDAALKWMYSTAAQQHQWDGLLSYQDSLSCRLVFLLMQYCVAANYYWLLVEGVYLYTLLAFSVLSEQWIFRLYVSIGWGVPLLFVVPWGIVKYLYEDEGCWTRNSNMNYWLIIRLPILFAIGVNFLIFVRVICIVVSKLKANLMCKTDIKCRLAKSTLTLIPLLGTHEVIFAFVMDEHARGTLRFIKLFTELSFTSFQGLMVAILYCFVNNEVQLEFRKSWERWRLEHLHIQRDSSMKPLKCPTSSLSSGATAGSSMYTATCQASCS
As to the kind of experiment: BSA-cAMP assay, cells expressing human GLP-1 receptor. The following applies: BSA-cAMP assay, read-out: hGLP1r cAMP activity EC50. The gist of the method: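 EC50 came from an unconstrained 4-parameter logistic fit of HTRF cAMP data expressed as percent of maximal native agonist activation, tested on two occasions. Thawed receptor-expressing cells (hGLP-1r, hGIPr at 0.5×10^5 cells/ml) treated 30 min at room temperature in 0.1% BSA-containing medium; two distinct hGIPr lines.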

[5] abbreviates: Batch 1, read-out: hGCGr cAMP activity EC50.
Where [6] appears, read: Batch 2, read-out: hGCGr cAMP activity EC50.

T1 sequence (P47871 26-477): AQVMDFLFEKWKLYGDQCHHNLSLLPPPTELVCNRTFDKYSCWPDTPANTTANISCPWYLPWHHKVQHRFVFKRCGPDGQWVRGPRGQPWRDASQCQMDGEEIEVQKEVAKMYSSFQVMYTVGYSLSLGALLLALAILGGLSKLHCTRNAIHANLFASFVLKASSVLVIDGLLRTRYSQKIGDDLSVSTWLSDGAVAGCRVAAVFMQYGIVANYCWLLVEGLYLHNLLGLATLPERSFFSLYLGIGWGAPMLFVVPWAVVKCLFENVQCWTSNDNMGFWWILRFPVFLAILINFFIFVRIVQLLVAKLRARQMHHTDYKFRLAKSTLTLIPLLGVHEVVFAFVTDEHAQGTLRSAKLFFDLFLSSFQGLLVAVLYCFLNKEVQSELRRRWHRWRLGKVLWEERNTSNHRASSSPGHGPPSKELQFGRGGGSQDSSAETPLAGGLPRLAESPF

As to “IP320 (YSEGTFTSDYAAAAEAAAAAAFAAWLAAAAGGGGGSGGGGSGGGGSGGGGSACPPC)”, the EC50 in experiment [1] (setting [5]) is 3800 nM; in experiment [1] (setting [6]), 3800 nM; with rat GIP receptor (rGIPr) (Batch 1) it was 130 nM; in experiment [2] (Batch 1), 2500 nM; in experiment [3] (Batch 1), > 3930 nM; in experiment [4] (Batch 1), 160 nM. Besides, in experiment [4] (Batch 2), the EC50 came to 260 nM.
Regarding “IP396 (YSEGTFTSDYSKLLERQAIDEFIAWLLKGGGGGGGSGGGGSGGGGSGGGGSACPPC)”, the EC50 came to 330 nM in experiment [1] (setting [5]); 250 nM in experiment [1] (setting [6]); 0.19 nM in the experiment with rat GIP receptor (rGIPr) (Batch 1); 0.014 nM with rat GIP receptor (rGIPr) (Batch 2); 1.2 nM in experiment [2] (Batch 1); 2.5 nM in experiment [2] (Batch 2). Moreover, the EC50 was 0.28 nM in experiment [3] (Batch 1), 0.78 nM in experiment [3] (Batch 2), 0.11 nM in experiment [4] (Batch 1) and 0.11 nM in experiment [4] (Batch 2).
Take “IP412: Fc fusion, IgG1-TM, SEQ ID NO:387; agonist peptide YSEGTFTSDYSKLLEEEANRLFIEWLLAGG (YSEGTFTSDYSKLLEEEANRLFIEWLLAGGGGGGSGGGGSGGGGSGGGGSATHTCPPC)”: the concentration giving a half-maximal response (EC50) is > 440 nM in experiment [1] (setting [5]); 0.018 nM in the experiment with rat GIP receptor (rGIPr) (Batch 1); 1.2 nM in experiment [2] (Batch 1); 0.4 nM in experiment [3] (Batch 1); 0.073 nM in experiment [4] (Batch 1).
